Data as given in patent US20210301029A1 (LYVGEN BIOPHARMA, published 2021).

T1: human FcγRIIB (human, UniProt P31994 43-310)
T1 construct: whole, on cells; also called CD32b; FcγR2B
T1 sequence (looked up): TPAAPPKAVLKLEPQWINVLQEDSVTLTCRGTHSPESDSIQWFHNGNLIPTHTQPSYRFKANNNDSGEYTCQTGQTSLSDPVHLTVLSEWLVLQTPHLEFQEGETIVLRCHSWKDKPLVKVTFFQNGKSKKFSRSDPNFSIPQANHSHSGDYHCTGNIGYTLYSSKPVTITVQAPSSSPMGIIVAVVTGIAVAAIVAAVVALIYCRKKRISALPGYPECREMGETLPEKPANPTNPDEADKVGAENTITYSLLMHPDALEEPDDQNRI


How the values were obtained:
[1] = target: T1, human FcγRIIB; assay: FACS on CHO cells expressing human FcγRIIB (MFI)
Protocol: (§1) For FACS analysis of the IgG mutants' binding to different FcγRs, FcγR overexpressing CHO cells were harvested using trypsin-EDTA and were suspended in cold staining buffer (3% BSA in PBS). Test IgG mutants, which were diluted in staining buffer, were added into the cells. The mixture was incubated at 4° C. for 2 hours, and then washed twice with cold staining buffer and re-suspended in PE-labeled anti-human IgG followed by incubation at 4° C. for 2 hours. The mixture was washed twice with staining buffer and re-suspended in 2% PFA in PBS for FACS.

[2] = target: T2, human FcγRIII (human, UniProt P08637 17-254); assay: FACS on CHO cells expressing human FcγRIIIA (MFI)
T2 construct: whole, on cells; also called FcγRIIIA; CD16a
Protocol: as §1

[3] = target: T3, human FcγRI (human, UniProt P12314 16-374); assay: FACS on CHO cells expressing human FcγRI (MFI)
T3 construct: whole, on cells; also called CD64
Protocol: as §1

T2 sequence (P08637 17-254): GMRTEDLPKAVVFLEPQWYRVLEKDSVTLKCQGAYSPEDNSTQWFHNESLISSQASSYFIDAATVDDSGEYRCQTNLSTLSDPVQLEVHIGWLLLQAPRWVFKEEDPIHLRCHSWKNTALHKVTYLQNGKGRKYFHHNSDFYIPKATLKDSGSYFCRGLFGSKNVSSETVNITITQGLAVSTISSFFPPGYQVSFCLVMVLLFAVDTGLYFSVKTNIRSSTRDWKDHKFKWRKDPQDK
T3 sequence (P12314 16-374): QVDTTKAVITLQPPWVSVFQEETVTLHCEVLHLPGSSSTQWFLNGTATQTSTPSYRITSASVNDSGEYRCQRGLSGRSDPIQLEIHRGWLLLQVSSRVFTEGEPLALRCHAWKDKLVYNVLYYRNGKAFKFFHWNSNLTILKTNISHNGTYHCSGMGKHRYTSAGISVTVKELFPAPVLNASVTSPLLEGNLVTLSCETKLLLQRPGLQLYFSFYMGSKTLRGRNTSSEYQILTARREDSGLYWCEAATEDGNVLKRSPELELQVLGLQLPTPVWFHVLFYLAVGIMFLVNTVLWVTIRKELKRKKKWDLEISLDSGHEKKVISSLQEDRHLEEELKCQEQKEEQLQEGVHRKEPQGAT

binding result [1] | binding result [2] | binding result [3] | Binder
binds |  |  | 383-huIgG1m2 (antibody, also called 383-G1m2) heavy: not shown light: DIQMTQSPSSVSASVGDRVTITCRASQGIYSWLAWYQQKPGKAPNLLIYTASTLQSGVPSRFSGSGSGTDFTLTISSLQPEDFATYYCQQANIFPLTFGGGTKVEIKRTVAAPSVFIFPPSDEQLKSGTASVVCLLNNFYPREAKVQWKVDNALQSGNSQESVTEQDSKDSTYSLSSTLTLSKADYEKHKVYACEVTHQGLSSPVTKSFNRGEC
binds | no binding (tested: 30 µg/mL) |  | 383-huIgG4m2 (antibody) heavy: not shown light: DIQMTQSPSSVSASVGDRVTITCRASQGIYSWLAWYQQKPGKAPNLLIYTASTLQSGVPSRFSGSGSGTDFTLTISSLQPEDFATYYCQQANIFPLTFGGGTKVEIKRTVAAPSVFIFPPSDEQLKSGTASVVCLLNNFYPREAKVQWKVDNALQSGNSQESVTEQDSKDSTYSLSSTLTLSKADYEKHKVYACEVTHQGLSSPVTKSFNRGEC
binds | no binding (tested: 30 µg/mL) | no binding (tested: 30 µg/mL) | 383-huIgG2m19 (antibody) heavy: not shown light: DIQMTQSPSSVSASVGDRVTITCRASQGIYSWLAWYQQKPGKAPNLLIYTASTLQSGVPSRFSGSGSGTDFTLTISSLQPEDFATYYCQQANIFPLTFGGGTKVEIKRTVAAPSVFIFPPSDEQLKSGTASVVCLLNNFYPREAKVQWKVDNALQSGNSQESVTEQDSKDSTYSLSSTLTLSKADYEKHKVYACEVTHQGLSSPVTKSFNRGEC
binds |  | binds | 383-huIgG1 (antibody, anti-CD40 antibody 383 on a wild-type human IgG1 constant region) heavy chain: not shown light chain: DIQMTQSPSSVSASVGDRVTITCRASQGIYSWLAWYQQKPGKAPNLLIYTASTLQSGVPSRFSGSGSGTDFTLTISSLQPEDFATYYCQQANIFPLTFGGGTKVEIKRTVAAPSVFIFPPSDEQLKSGTASVVCLLNNFYPREAKVQWKVDNALQSGNSQESVTEQDSKDSTYSLSSTLTLSKADYEKHKVYACEVTHQGLSSPVTKSFNRGEC
binds |  | binds | 383-huIgG4mAA (antibody) heavy: not shown light: DIQMTQSPSSVSASVGDRVTITCRASQGIYSWLAWYQQKPGKAPNLLIYTASTLQSGVPSRFSGSGSGTDFTLTISSLQPEDFATYYCQQANIFPLTFGGGTKVEIKRTVAAPSVFIFPPSDEQLKSGTASVVCLLNNFYPREAKVQWKVDNALQSGNSQESVTEQDSKDSTYSLSSTLTLSKADYEKHKVYACEVTHQGLSSPVTKSFNRGEC
no binding (tested: 30 µg/mL) | no binding (tested: 30 µg/mL) |  | 383-huIgG1mAAG (antibody, Anti-CD40 antibody 383 with Fc variant G1mAAG; also called G1mAG) heavy: not shown light: DIQMTQSPSSVSASVGDRVTITCRASQGIYSWLAWYQQKPGKAPNLLIYTASTLQSGVPSRFSGSGSGTDFTLTISSLQPEDFATYYCQQANIFPLTFGGGTKVEIKRTVAAPSVFIFPPSDEQLKSGTASVVCLLNNFYPREAKVQWKVDNALQSGNSQESVTEQDSKDSTYSLSSTLTLSKADYEKHKVYACEVTHQGLSSPVTKSFNRGEC
binds | no binding (tested: 30 µg/mL) |  | 383-huIgG4m46 (antibody) heavy: not shown light: DIQMTQSPSSVSASVGDRVTITCRASQGIYSWLAWYQQKPGKAPNLLIYTASTLQSGVPSRFSGSGSGTDFTLTISSLQPEDFATYYCQQANIFPLTFGGGTKVEIKRTVAAPSVFIFPPSDEQLKSGTASVVCLLNNFYPREAKVQWKVDNALQSGNSQESVTEQDSKDSTYSLSSTLTLSKADYEKHKVYACEVTHQGLSSPVTKSFNRGEC
 | no binding (tested: 30 µg/mL) | no binding (tested: 30 µg/mL) | 383-huIgG2m2040 (antibody) heavy: not shown light: DIQMTQSPSSVSASVGDRVTITCRASQGIYSWLAWYQQKPGKAPNLLIYTASTLQSGVPSRFSGSGSGTDFTLTISSLQPEDFATYYCQQANIFPLTFGGGTKVEIKRTVAAPSVFIFPPSDEQLKSGTASVVCLLNNFYPREAKVQWKVDNALQSGNSQESVTEQDSKDSTYSLSSTLTLSKADYEKHKVYACEVTHQGLSSPVTKSFNRGEC
binds |  |  | 383-huIgG1m27 (antibody) heavy: not shown light: DIQMTQSPSSVSASVGDRVTITCRASQGIYSWLAWYQQKPGKAPNLLIYTASTLQSGVPSRFSGSGSGTDFTLTISSLQPEDFATYYCQQANIFPLTFGGGTKVEIKRTVAAPSVFIFPPSDEQLKSGTASVVCLLNNFYPREAKVQWKVDNALQSGNSQESVTEQDSKDSTYSLSSTLTLSKADYEKHKVYACEVTHQGLSSPVTKSFNRGEC
no binding (tested: 30 µg/mL) | no binding (tested: 30 µg/mL) |  | 383-huIgG4m40 (antibody) heavy: not shown light: DIQMTQSPSSVSASVGDRVTITCRASQGIYSWLAWYQQKPGKAPNLLIYTASTLQSGVPSRFSGSGSGTDFTLTISSLQPEDFATYYCQQANIFPLTFGGGTKVEIKRTVAAPSVFIFPPSDEQLKSGTASVVCLLNNFYPREAKVQWKVDNALQSGNSQESVTEQDSKDSTYSLSSTLTLSKADYEKHKVYACEVTHQGLSSPVTKSFNRGEC
binds |  | binds | 383-huIgG1m50 (antibody) heavy: not shown light: DIQMTQSPSSVSASVGDRVTITCRASQGIYSWLAWYQQKPGKAPNLLIYTASTLQSGVPSRFSGSGSGTDFTLTISSLQPEDFATYYCQQANIFPLTFGGGTKVEIKRTVAAPSVFIFPPSDEQLKSGTASVVCLLNNFYPREAKVQWKVDNALQSGNSQESVTEQDSKDSTYSLSSTLTLSKADYEKHKVYACEVTHQGLSSPVTKSFNRGEC
binds |  | no binding (tested: 30 µg/mL) | 383-huIgG1m45 (antibody) heavy: not shown light: DIQMTQSPSSVSASVGDRVTITCRASQGIYSWLAWYQQKPGKAPNLLIYTASTLQSGVPSRFSGSGSGTDFTLTISSLQPEDFATYYCQQANIFPLTFGGGTKVEIKRTVAAPSVFIFPPSDEQLKSGTASVVCLLNNFYPREAKVQWKVDNALQSGNSQESVTEQDSKDSTYSLSSTLTLSKADYEKHKVYACEVTHQGLSSPVTKSFNRGEC
 | no binding (tested: 30 µg/mL) | no binding (tested: 30 µg/mL) | 383-huIgG2m43 (antibody) heavy: not shown light: DIQMTQSPSSVSASVGDRVTITCRASQGIYSWLAWYQQKPGKAPNLLIYTASTLQSGVPSRFSGSGSGTDFTLTISSLQPEDFATYYCQQANIFPLTFGGGTKVEIKRTVAAPSVFIFPPSDEQLKSGTASVVCLLNNFYPREAKVQWKVDNALQSGNSQESVTEQDSKDSTYSLSSTLTLSKADYEKHKVYACEVTHQGLSSPVTKSFNRGEC
binds |  | no binding (tested: 30 µg/mL) | 383-huIgG1m47 (antibody) heavy: not shown light: DIQMTQSPSSVSASVGDRVTITCRASQGIYSWLAWYQQKPGKAPNLLIYTASTLQSGVPSRFSGSGSGTDFTLTISSLQPEDFATYYCQQANIFPLTFGGGTKVEIKRTVAAPSVFIFPPSDEQLKSGTASVVCLLNNFYPREAKVQWKVDNALQSGNSQESVTEQDSKDSTYSLSSTLTLSKADYEKHKVYACEVTHQGLSSPVTKSFNRGEC
binds |  | binds | 383-huIgG4mPE (antibody) heavy: not shown light: DIQMTQSPSSVSASVGDRVTITCRASQGIYSWLAWYQQKPGKAPNLLIYTASTLQSGVPSRFSGSGSGTDFTLTISSLQPEDFATYYCQQANIFPLTFGGGTKVEIKRTVAAPSVFIFPPSDEQLKSGTASVVCLLNNFYPREAKVQWKVDNALQSGNSQESVTEQDSKDSTYSLSSTLTLSKADYEKHKVYACEVTHQGLSSPVTKSFNRGEC
 |  | no binding (tested: 30 µg/mL) | 383-huIgG1m240 (antibody) heavy: not shown light: DIQMTQSPSSVSASVGDRVTITCRASQGIYSWLAWYQQKPGKAPNLLIYTASTLQSGVPSRFSGSGSGTDFTLTISSLQPEDFATYYCQQANIFPLTFGGGTKVEIKRTVAAPSVFIFPPSDEQLKSGTASVVCLLNNFYPREAKVQWKVDNALQSGNSQESVTEQDSKDSTYSLSSTLTLSKADYEKHKVYACEVTHQGLSSPVTKSFNRGEC
 | no binding (tested: 30 µg/mL) | no binding (tested: 30 µg/mL) | 383-huIgG4m30 (antibody) heavy: not shown light: DIQMTQSPSSVSASVGDRVTITCRASQGIYSWLAWYQQKPGKAPNLLIYTASTLQSGVPSRFSGSGSGTDFTLTISSLQPEDFATYYCQQANIFPLTFGGGTKVEIKRTVAAPSVFIFPPSDEQLKSGTASVVCLLNNFYPREAKVQWKVDNALQSGNSQESVTEQDSKDSTYSLSSTLTLSKADYEKHKVYACEVTHQGLSSPVTKSFNRGEC
binds |  | binds | 383-huIgG1m49 (antibody) heavy: not shown light: DIQMTQSPSSVSASVGDRVTITCRASQGIYSWLAWYQQKPGKAPNLLIYTASTLQSGVPSRFSGSGSGTDFTLTISSLQPEDFATYYCQQANIFPLTFGGGTKVEIKRTVAAPSVFIFPPSDEQLKSGTASVVCLLNNFYPREAKVQWKVDNALQSGNSQESVTEQDSKDSTYSLSSTLTLSKADYEKHKVYACEVTHQGLSSPVTKSFNRGEC
